We go through 3 molecules from paper PMC3077455 (Nature, 2011).

The chains are these.
T1: Scm3 residues 93-169, as it stands in the single-chain molecule scSCH (yeast, UniProt Q12334 93-169)
T1 sequence: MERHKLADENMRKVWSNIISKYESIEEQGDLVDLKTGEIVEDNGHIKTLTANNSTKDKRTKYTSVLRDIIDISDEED

B1: Scm3_(83–169) (domain or fragment)
chain: IIPKLTDDEVMERHKLADENMRKVWSNIISKYESIEEQGDLVDLKTGEIVEDNGHIKTLTANNSTKDKRTKYTSVLRDIIDISDEED
B2: single chain Cse4-H4 (His6-KK-Cse4_(151–207)-LVPRGS-H4_(45–103)) (complex)
chain: not shown
B3: Histone H4 residues 42-103, as it stands in the single-chain molecule scSCH (domain or fragment)
chain: not shown

In test [1] the target is single chain Cse4-H4 with Cse4 Ala189Ser/Ser190Val (budding yeast | , UniProt P36012;P02309, Ala189Ser | Ser190Val). Nature of the test: ITC. (In ITC the heat of successive injections is recorded.)
Test [2] addresses single chain Cse4-H4 with Cse4 Met181Ser/Met184Gly (budding yeast | , UniProt P36012;P02309, Met181Ser | Met184Gly). Nature of the test: ITC.
The target in the test “Scm3_(83–169)” is B1. Nature of the test: ITC.
Test [3] concerns the target T1, Scm3 residues 93-169, as it stands in …. Nature of the test: NMR structure.

For the molecule B1, the figures for the “fold reduction of the binding affinity against the wild type” value in test [1] and in test [2] were 9 fold and 5.5 fold, respectively.

Regarding B2, in the test with Scm3_(83–169), the binding result is given as “binds”.

On to B3, for which the binding result in test [3] is on record as “binds”.
